# B1: Serine/threonine-protein kinase D1 (Mus musculus), Q62101 (parent)
# chain: MSVPPLLRPPSPLLPAAAAVAAAAAALVPGSGPAPFPAPGAAPAGGISFHLQIGLSREPVLLLQDSSGDYSLAHVREMACSIVDQKFPECGFYGLYDKILLFRHDPASDNILQLVKIASDIQEGDLIEVVLSASATFEDFQIRPHALFVHSYRAPAFCDHCGEMLWGLVRQGLKCEGCGLNYHKRCAFKIPNNCSGVRRRRLSNVSLTGLGTVRTASAEFSTSVPDEPLLSPVSPGFEQKSPSESFIGREKRSNSQSYIGRPIQLDKLLMSKVKVPHTFVIHSYTRPTVCQFCKKLLKGLFRQGLQCKDCRFNCHKRCAPKVPNNCLGEVTINGELLSPGAESDVVMEEGSDDNDSERNSGLMDDMDEAMVQDTEMALAEGQSGGAEMQDPDADQEDSNRTISPSTSNNIPLMRVVQSVKHTKRRSSTVMKEGWMVHYTSKDTLRKRHYWRLDSKCITLFQNDTGSRYYKEIPLSEILCLEPAKPSALTPVGATPHCFEITTANVVYYVGENVVNPSSSPPNNSVLPSGIGPDVARMWEVAIQHALMPVIPKGSSVGSGSNSHKDISVSISVSNCQIQENVDISTVYQIFPDEVLGSGQFGIVYGGKHRKTGRDVAIKIIDKLRFPTKQESQLRNEVAILQNLHHPGVVNLECMFETPERVFVVMEKLHGDMLEMILSSEKGRLPEHITKFLITQILVALRHLHFKNIVHCDLKPENVLLASADPFPQVKLCDFGFARIIGEKSFRRSVVGTPAYLAPEVLRNKGYNRSLDMWSVGVIIYVSLSGTFPFNEDEDIHDQIQNAAFMYPPNPWKEISHEAIDLINNLLQVKMRKRYSVDKTLSHPWLQDYQTWLDLRELECRIGERYITHESDDSRWEQYAGEQGLQYPAHLISLSASHSDSPEAEEREMKALSERVSIL
# Variants of: B1
# Conditions: with itb3_human ITGB3, P05106
# Chain of itb3_human ITGB3, P05106 (P05106 whole entry): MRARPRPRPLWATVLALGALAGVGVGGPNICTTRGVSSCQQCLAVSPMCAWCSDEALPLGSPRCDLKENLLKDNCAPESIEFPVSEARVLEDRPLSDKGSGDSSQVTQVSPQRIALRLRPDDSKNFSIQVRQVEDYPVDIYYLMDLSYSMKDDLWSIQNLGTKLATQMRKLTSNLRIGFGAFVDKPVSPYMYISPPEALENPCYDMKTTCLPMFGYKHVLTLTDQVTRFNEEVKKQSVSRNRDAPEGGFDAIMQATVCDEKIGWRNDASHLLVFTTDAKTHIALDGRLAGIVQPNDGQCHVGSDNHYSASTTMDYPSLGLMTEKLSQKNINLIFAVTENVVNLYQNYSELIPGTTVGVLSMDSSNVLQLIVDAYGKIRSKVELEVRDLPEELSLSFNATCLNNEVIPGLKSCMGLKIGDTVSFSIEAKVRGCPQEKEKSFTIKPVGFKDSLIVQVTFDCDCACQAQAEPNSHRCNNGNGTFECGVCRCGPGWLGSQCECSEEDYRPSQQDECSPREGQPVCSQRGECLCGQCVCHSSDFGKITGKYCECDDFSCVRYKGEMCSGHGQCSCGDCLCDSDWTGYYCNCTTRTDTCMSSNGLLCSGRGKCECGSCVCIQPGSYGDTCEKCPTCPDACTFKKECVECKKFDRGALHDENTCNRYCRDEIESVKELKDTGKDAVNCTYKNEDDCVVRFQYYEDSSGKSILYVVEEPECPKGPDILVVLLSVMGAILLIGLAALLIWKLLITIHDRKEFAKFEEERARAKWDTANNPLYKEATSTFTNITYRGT
row,Variant,effect of a mutation on the interaction
1,S916A,decreasing interaction

# Variants of: B1
# Conditions: with itb3_human ITGB3, P05106
# Remark: another data set of the same source
row,Variant,effect of a mutation on the interaction
1,S916A,disrupting interaction

# From IntAct's records for PubMed 17485491
